Assay results from paper PMC1868955, “Crystal Structure of the P Pilus Rod Subunit PapA” (PLoS Pathogens, 2007).

How the values were obtained:
[1] = molecular target: the molecule itself; test: SEC; gel filtration of co-expressed PapDHis/PapA complexes immediately after purification; Superdex75 120 ml, 20 mM TrisHCl pH 7.5, 20 mM NaCl
[2] = molecular target: the molecule itself; test: negative-stain electron microscopy; PapD/PapA samples frozen and thawed five times at 150 μg/ml in 10–20 mM TrisHCl pH 7.6, 20–50 mM NaCl; used the same day or kept at 4 °C up to 40 d; 1% uranyl acetate

B1: PapA G15N (natural protein)
chain: APTIPQGQGKVTFNNTVVDAPCSISQKSADQSIDFGQLSKSFLEAGGVSKPMDLDIELVNCDITAFKGGNGAKKGTVKLAFTGPIVNGHSDELDTNGGTGTAIVVQGAGKNVVFDGSEGDANTLKDGENVLHYTAVVKKSSAVGAAVTEGAFSAVANFNLTYQ
notes: source: E. coli C600, co-expressed with PapDHis
[1]
  binding result: binds

B2: PapA I4G G15N (natural protein)
chain: APTGPQGQGKVTFNNTVVDAPCSISQKSADQSIDFGQLSKSFLEAGGVSKPMDLDIELVNCDITAFKGGNGAKKGTVKLAFTGPIVNGHSDELDTNGGTGTAIVVQGAGKNVVFDGSEGDANTLKDGENVLHYTAVVKKSSAVGAAVTEGAFSAVANFNLTYQ
notes: as for B1
[1]
  binding result: binds

B3: PapA I4G (natural protein)
chain: APTGPQGQGKVTFNGTVVDAPCSISQKSADQSIDFGQLSKSFLEAGGVSKPMDLDIELVNCDITAFKGGNGAKKGTVKLAFTGPIVNGHSDELDTNGGTGTAIVVQGAGKNVVFDGSEGDANTLKDGENVLHYTAVVKKSSAVGAAVTEGAFSAVANFNLTYQ
notes: as for B1
[2]
  binding result: binds

B4: PapA Ntd1 (residues 2 to 8 deleted) (natural protein)
chain: AGKVTFNGTVVDAPCSISQKSADQSIDFGQLSKSFLEAGGVSKPMDLDIELVNCDITAFKGGNGAKKGTVKLAFTGPIVNGHSDELDTNGGTGTAIVVQGAGKNVVFDGSEGDANTLKDGENVLHYTAVVKKSSAVGAAVTEGAFSAVANFNLTYQ
notes: also called Ntd1 (Δ2–8); source: E. coli C600, co-expressed with PapDHis
[1]
  binding result: binds

B5: PapA Ntd1 G15N T101L (residues 2 to 8 deleted, G15N, T101L) (natural protein)
chain: AGKVTFNNTVVDAPCSISQKSADQSIDFGQLSKSFLEAGGVSKPMDLDIELVNCDITAFKGGNGAKKGTVKLAFTGPIVNGHSDELDTNGGTGLAIVVQGAGKNVVFDGSEGDANTLKDGENVLHYTAVVKKSSAVGAAVTEGAFSAVANFNLTYQ
notes: Two copies stand in the PapD/(PapA)2 complex: one donor-strand complemented by PapD (dscPapA), one donor-strand exchanged with the Nte of the first (dsePapA); also called dscPapA; dsePapA; source: E. coli C600, co-expressed with PapDHis
[1]
  binding result: binds
